Consider 2 molecules from publication doi:10.1101/757856, “Biochemical and structural analysis reveals the Neurofibromin (NF1) protein forms a high-affinity dimer” (bioRxiv, 2019).

The target of assay [1] is T1, Neurofibromin EF fragment (1821-2818, purified) (human, UniProt P21359-2 1821-2818).
T1 construct: Neurofibromin, human NF1 isoform 2 (NM_000267.3), residues 1821-2818 (domains E and F); expected molar mass 111 kDa; also called EF domain; C-terminal EF domain; source: baculovirus-based insect cell system, purified; not shown: His6-MBP, N-terminal, cleaved
T1 sequence (looked up): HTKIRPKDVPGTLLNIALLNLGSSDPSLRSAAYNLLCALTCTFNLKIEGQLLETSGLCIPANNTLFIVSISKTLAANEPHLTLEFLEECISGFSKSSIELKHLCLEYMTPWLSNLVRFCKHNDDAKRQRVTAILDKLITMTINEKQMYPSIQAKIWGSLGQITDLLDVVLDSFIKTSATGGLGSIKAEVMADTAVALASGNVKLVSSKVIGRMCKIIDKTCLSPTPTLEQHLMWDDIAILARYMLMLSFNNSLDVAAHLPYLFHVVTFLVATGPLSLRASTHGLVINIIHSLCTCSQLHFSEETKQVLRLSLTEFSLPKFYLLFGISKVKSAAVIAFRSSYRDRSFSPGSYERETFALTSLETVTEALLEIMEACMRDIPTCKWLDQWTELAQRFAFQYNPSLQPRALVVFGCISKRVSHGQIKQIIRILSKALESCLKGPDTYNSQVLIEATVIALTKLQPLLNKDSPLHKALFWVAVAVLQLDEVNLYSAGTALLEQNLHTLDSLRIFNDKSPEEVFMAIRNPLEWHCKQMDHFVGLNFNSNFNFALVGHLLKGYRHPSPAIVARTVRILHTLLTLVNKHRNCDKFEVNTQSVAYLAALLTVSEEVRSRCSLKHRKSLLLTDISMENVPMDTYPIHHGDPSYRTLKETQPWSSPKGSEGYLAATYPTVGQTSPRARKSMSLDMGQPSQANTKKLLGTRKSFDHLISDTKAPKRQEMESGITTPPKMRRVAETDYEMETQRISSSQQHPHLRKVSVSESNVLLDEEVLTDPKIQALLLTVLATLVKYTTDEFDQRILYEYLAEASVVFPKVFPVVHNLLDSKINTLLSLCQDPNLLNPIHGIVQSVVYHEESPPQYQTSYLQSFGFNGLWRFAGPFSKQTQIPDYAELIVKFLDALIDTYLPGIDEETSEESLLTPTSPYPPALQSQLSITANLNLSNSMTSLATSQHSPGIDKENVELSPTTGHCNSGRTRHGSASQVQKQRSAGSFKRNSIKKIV
Description: SEC; equimolar mixtures of purified NF1 fragments run on SEC; fractions analysed by SDS-PAGE for co-elution. To be noted: both partners purified. In general terms: Size exclusion chromatography separates by hydrodynamic size, large species first.

Assay [2] addresses T2, Neurofibromin DEF fragment (1541-2818, purified) (human, UniProt P21359-2 1541-2818).
T2 construct: expected molar mass 144 kDa; also called DEF domain; carboxy-terminal DEF; source: baculovirus-based insect cell system, purified; not shown: His6-MBP, N-terminal, cleaved
The description is as above. The following applies: both partners purified.

B1: Neurofibromin C*D domain (1085-1816) (domain or fragment, human, UniProt P21359-2 1085-1816, looked up)
chain: LQPEEGDGVELMEAKSQLFLKYFTLFMNLLNDCSEVEDESAQTGGRKRGMSRRLASLRHCTVLAMSNLLNANVDSGLMHSIGLGYHKDLQTRATFMEVLTKILQQGTEFDTLAETVLADRFERLVELVTMMGDQGELPIAMALANVVPCSQWDELARVLVTLFDSRHLLYQLLWNMFSKEVELADSMQTLFRGNSLASKIMTFCFKVYGATYLQKLLDPLLRIVITSSDWQHVSFEVDPTRLEPSESLEENQRNLLQMTEKFFHAIISSSSEFPPQLRSVCHCLYQVVSQRFPQNSIGAVGSAMFLRFINPAIVSPYEAGILDKKPPPRIERGLKLMSKILQSIANHVLFTKEEHMRPFNDFVKSNFDAARRFFLDIASDCPTSDAVNHSLSFISDGNVLALHRLLWNNQEKIGQYLSSNRDHKAVGRRPFDKMATLLAYLGPPEHKPVADTHWSSLNLTSSKFEEFMTRHQVHEKEEFKALKTLSIFYQAGTSKAGNPIFYYVARRFKTGQINGDLLIYHVLLTLKPYYAKPYEIVVDLTHTGPSNRFKTDFLSKWFVVFPGFAYDNVSAVYIYNCNSWVREYTKYHERLLTGLKGSKRLVFIDCPGKLAEHIEHEQQKLPAATLALEEDLKVFHNALKLAHKDTKVSIKVGSTAVQVTSAERTKVLGQSVFLNDIYYASEIEEICLVDENQFTLTIANQGTPLTFMHQECEAIVQSIIHIRTRWELSQPD
notes: C* constructs have an altered start site within the C domain; source: purified; not shown: His6-MBP, N-terminal, cleaved
On to B1, for which the binding result in assay [1] is listed as “binds”.

B2: Neurofibromin C* domain (1085-1530) (domain or fragment, human, UniProt P21359-2 1085-1530, looked up)
chain: LQPEEGDGVELMEAKSQLFLKYFTLFMNLLNDCSEVEDESAQTGGRKRGMSRRLASLRHCTVLAMSNLLNANVDSGLMHSIGLGYHKDLQTRATFMEVLTKILQQGTEFDTLAETVLADRFERLVELVTMMGDQGELPIAMALANVVPCSQWDELARVLVTLFDSRHLLYQLLWNMFSKEVELADSMQTLFRGNSLASKIMTFCFKVYGATYLQKLLDPLLRIVITSSDWQHVSFEVDPTRLEPSESLEENQRNLLQMTEKFFHAIISSSSEFPPQLRSVCHCLYQVVSQRFPQNSIGAVGSAMFLRFINPAIVSPYEAGILDKKPPPRIERGLKLMSKILQSIANHVLFTKEEHMRPFNDFVKSNFDAARRFFLDIASDCPTSDAVNHSLSFISDGNVLALHRLLWNNQEKIGQYLSSNRDHKAVGRRPFDKMATLLAYLGPPEH
notes: source: purified; not shown: His6-MBP, N-terminal, cleaved
Turning to B2, the binding result in assay [2] and in assay [1] was “binds” throughout.
